# Results: the supplement of paper PMC9112550, “Optimization of the antimicrobial peptide Bac7 by deep mutational scanning” (BMC Biology, 2022)
# System: Escherichia coli TOP10
# Assay: shrunken log2 fold change of peptide-encoding DNA abundance (4.5 h post-induction vs induction); higher = less antimicrobial activity (less host growth inhibition)
# Conditions: time post-induction: 4.5 h; library: site-saturation at positions 5, 18, 19, 20
# 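Also: peptides expressed intracellularly from a pBAD plasmid library in pooled LB shake-flask culture, induced with 0.3% L-arabinose, DNA abundance read by NGS, three biological replicates, DESeq2 with apeglm shrinkage.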
row,Sequence,shrunken log2 fold change
1,RRIRCRPPRLPRPRPRPLLQPRP,0.167
2,RRIRQRPPRLPRPRPRPNCFPRP,0.0427
3,RRIRQRPPRLPRPRPRPFHSPRP,-0.00884
4,RRIRCRPPRLPRPRPRPCWEPRP,-0.0142
5,RRIRPRPPRLPRPRPRPQNWPRP,0.0202
6,RRIRTRPPRLPRPRPRPHDNPRP,-0.574
7,RRIRMRPPRLPRPRPRPARLPRP,0.201
8,RRIRVRPPRLPRPRPRPNCGPRP,0.0742
9,RRIRRRPPRLPRPRPRPDSHPRP,-0.00863
10,RRIRSRPPRLPRPRPRPIDVPRP,-0.0081
11,RRIRGRPPRLPRPRPRPHTGPRP,-0.0945
12,RRIRNRPPRLPRPRPRPSDEPRP,-0.189
13,RRIRCRPPRLPRPRPRPHICPRP,-0.272
14,RRIRGRPPRLPRPRPRPQYWPRP,0.122
15,RRIRYRPPRLPRPRPRPQHPPRP,-0.595
16,RRIRVRPPRLPRPRPRPNPIPRP,0.129
17,RRIRYRPPRLPRPRPRPFHTPRP,-0.128
18,RRIRKRPPRLPRPRPRPKNPPRP,0.0739
19,RRIRDRPPRLPRPRPRPQVLPRP,-0.178
20,RRIRPRPPRLPRPRPRPCGCPRP,0.098
21,RRIRKRPPRLPRPRPRPIAYPRP,-0.0799
22,RRIRERPPRLPRPRPRPFPPPRP,-0.38
23,RRIRMRPPRLPRPRPRPQVEPRP,-0.00107
24,RRIRKRPPRLPRPRPRPPWMPRP,0.48
25,RRIRHRPPRLPRPRPRPEFFPRP,0.0155

row,Sequence,shrunken log2 fold change
1,RRIRQRPPRLPRPRPRPNTKPRP,-0.199
2,RRIRHRPPRLPRPRPRPVAVPRP,-0.0993
3,RRIRYRPPRLPRPRPRPFCIPRP,-1.5
4,RRIRQRPPRLPRPRPRPWYEPRP,0.0185
5,RRIRDRPPRLPRPRPRPDKKPRP,0.0252
6,RRIRWRPPRLPRPRPRPRVHPRP,0.341
7,RRIRPRPPRLPRPRPRPYKSPRP,-0.0798
8,RRIRVRPPRLPRPRPRPCHFPRP,-0.0858
9,RRIRVRPPRLPRPRPRPETLPRP,-0.223
10,RRIRTRPPRLPRPRPRPENLPRP,-0.0254
11,RRIRKRPPRLPRPRPRPLQRPRP,0.331
12,RRIRWRPPRLPRPRPRPNPHPRP,-0.0669
13,RRIRVRPPRLPRPRPRPENTPRP,-0.0389
14,RRIRSRPPRLPRPRPRPMSDPRP,-0.195
15,RRIRQRPPRLPRPRPRPKYKPRP,-0.445
16,RRIRSRPPRLPRPRPRPMKLPRP,-0.0255
17,RRIRERPPRLPRPRPRPEFCPRP,0.112
18,RRIRGRPPRLPRPRPRPGANPRP,0.874
19,RRIRNRPPRLPRPRPRPRAKPRP,0.0711
20,RRIRIRPPRLPRPRPRPHFMPRP,-0.685
21,RRIRKRPPRLPRPRPRPLAWPRP,0.928
22,RRIRIRPPRLPRPRPRPICTPRP,-0.458
23,RRIRCRPPRLPRPRPRPQTEPRP,0.0248
24,RRIRIRPPRLPRPRPRPPVLPRP,0.328
25,RRIRARPPRLPRPRPRPHFHPRP,-0.197

row,Sequence,shrunken log2 fold change
1,RRIRNRPPRLPRPRPRPRWKPRP,-0.109
2,RRIRDRPPRLPRPRPRPIWLPRP,0.0516
3,RRIRARPPRLPRPRPRPHIAPRP,-0.111
4,RRIRVRPPRLPRPRPRPEITPRP,-0.159
5,RRIRQRPPRLPRPRPRPDGRPRP,0.0192
6,RRIRYRPPRLPRPRPRPWIPPRP,-0.0119
7,RRIRKRPPRLPRPRPRPCLVPRP,0.123
8,RRIRRRPPRLPRPRPRPQIGPRP,0.164
9,RRIRNRPPRLPRPRPRPIDSPRP,-0.0173
10,RRIRRRPPRLPRPRPRPKKIPRP,0.106
11,RRIRYRPPRLPRPRPRPYNDPRP,-0.0979
12,RRIRIRPPRLPRPRPRPQEVPRP,0.0526
13,RRIRKRPPRLPRPRPRPKEEPRP,0.0277
14,RRIRFRPPRLPRPRPRPQGLPRP,-0.462
15,RRIRTRPPRLPRPRPRPSFRPRP,-1.02
16,RRIRVRPPRLPRPRPRPIFPPRP,0.199
17,RRIRARPPRLPRPRPRPYPHPRP,-0.0654
18,RRIRNRPPRLPRPRPRPDALPRP,0.0233
19,RRIRPRPPRLPRPRPRPCKAPRP,-0.00218
20,RRIRARPPRLPRPRPRPWLDPRP,0.0658
21,RRIRKRPPRLPRPRPRPDPLPRP,0.282
22,RRIRWRPPRLPRPRPRPIPNPRP,-0.262
23,RRIRYRPPRLPRPRPRPMRPPRP,0.512
24,RRIRPRPPRLPRPRPRPSMQPRP,-0.29
25,RRIRLRPPRLPRPRPRPFKDPRP,-0.023

row,Sequence,shrunken log2 fold change
1,RRIRWRPPRLPRPRPRPMYRPRP,-0.233
2,RRIRERPPRLPRPRPRPKEMPRP,-0.192
3,RRIRCRPPRLPRPRPRPYVCPRP,-0.11
4,RRIRPRPPRLPRPRPRPTTVPRP,0.0207
5,RRIRTRPPRLPRPRPRPRLYPRP,0.0155
6,RRIRCRPPRLPRPRPRPCKRPRP,-0.115
7,RRIRNRPPRLPRPRPRPEVKPRP,-0.031
8,RRIRLRPPRLPRPRPRPKSGPRP,0.143
9,RRIRTRPPRLPRPRPRPRDMPRP,0.161
10,RRIRVRPPRLPRPRPRPYLWPRP,-0.269
11,RRIRPRPPRLPRPRPRPDIQPRP,-0.222
12,RRIRERPPRLPRPRPRPHFEPRP,-0.211
13,RRIRCRPPRLPRPRPRPQFPPRP,-0.17
14,RRIRKRPPRLPRPRPRPHTHPRP,-0.0896
15,RRIRARPPRLPRPRPRPIEVPRP,0.0287
16,RRIRKRPPRLPRPRPRPQVQPRP,0.131
17,RRIRRRPPRLPRPRPRPNLDPRP,-0.152
18,RRIRRRPPRLPRPRPRPCIYPRP,0.0603
19,RRIRGRPPRLPRPRPRPSWTPRP,0.219
20,RRIRHRPPRLPRPRPRPFSCPRP,-0.0244
21,RRIRFRPPRLPRPRPRPPVNPRP,0.147
22,RRIRRRPPRLPRPRPRPPDEPRP,0.726
23,RRIRERPPRLPRPRPRPSYNPRP,-0.924
24,RRIRGRPPRLPRPRPRPGPHPRP,0.57
25,RRIRHRPPRLPRPRPRPVGFPRP,-0.203

row,Sequence,shrunken log2 fold change
1,RRIRARPPRLPRPRPRPKSCPRP,0.129
2,RRIRGRPPRLPRPRPRPNKFPRP,-0.106
3,RRIRSRPPRLPRPRPRPNFCPRP,0.0353
4,RRIRVRPPRLPRPRPRPTWQPRP,0.27
5,RRIRRRPPRLPRPRPRPDIFPRP,0.0756
6,RRIRGRPPRLPRPRPRPDNGPRP,-0.0263
7,RRIRLRPPRLPRPRPRPKTTPRP,0.196
8,RRIRSRPPRLPRPRPRPVKRPRP,0.26
9,RRIRARPPRLPRPRPRPYHQPRP,-0.885
10,RRIRQRPPRLPRPRPRPKFKPRP,0.0538
11,RRIRLRPPRLPRPRPRPIDFPRP,-0.384
12,RRIRHRPPRLPRPRPRPQQFPRP,-0.217
13,RRIRLRPPRLPRPRPRPSEYPRP,-0.675
14,RRIRTRPPRLPRPRPRPLKQPRP,0.0283
15,RRIRRRPPRLPRPRPRPPPWPRP,0.868
16,RRIRMRPPRLPRPRPRPKRHPRP,0.351
17,RRIRRRPPRLPRPRPRPLMHPRP,0.292
18,RRIRYRPPRLPRPRPRPYMKPRP,-0.122
19,RRIRERPPRLPRPRPRPGWGPRP,0.521
20,RRIRPRPPRLPRPRPRPDNDPRP,0.0931
21,RRIRIRPPRLPRPRPRPTYHPRP,-0.949
22,RRIRGRPPRLPRPRPRPNAMPRP,0.988
23,RRIRQRPPRLPRPRPRPEMMPRP,0.151
24,RRIRRRPPRLPRPRPRPCSVPRP,0.178
25,RRIRTRPPRLPRPRPRPGIYPRP,-0.279

row,Sequence,shrunken log2 fold change
1,RRIRERPPRLPRPRPRPNMLPRP,-0.753
2,RRIRSRPPRLPRPRPRPNEYPRP,-1.02
3,RRIRYRPPRLPRPRPRPFKFPRP,0.0599
4,RRIRQRPPRLPRPRPRPWIAPRP,-0.161
5,RRIRERPPRLPRPRPRPQAHPRP,-0.0188
6,RRIRYRPPRLPRPRPRPWFWPRP,-0.0261
7,RRIRRRPPRLPRPRPRPTTTPRP,0.34
8,RRIRYRPPRLPRPRPRPKDCPRP,-0.494
9,RRIRGRPPRLPRPRPRPKVDPRP,3.36
10,RRIRPRPPRLPRPRPRPADLPRP,0.0166
11,RRIRPRPPRLPRPRPRPGHSPRP,-0.0921
12,RRIRSRPPRLPRPRPRPMFHPRP,-0.438
13,RRIRGRPPRLPRPRPRPSFPPRP,-0.0674
14,RRIRWRPPRLPRPRPRPAQVPRP,0.565
15,RRIRHRPPRLPRPRPRPGRMPRP,-0.313
16,RRIRYRPPRLPRPRPRPPAKPRP,0.441
17,RRIRCRPPRLPRPRPRPPDSPRP,-0.0091
18,RRIRRRPPRLPRPRPRPSNHPRP,-0.396
19,RRIRIRPPRLPRPRPRPLTIPRP,-0.536
20,RRIRDRPPRLPRPRPRPAHAPRP,0.0741
21,RRIRKRPPRLPRPRPRPKMDPRP,0.158
22,RRIRERPPRLPRPRPRPSEQPRP,-0.0297
23,RRIRDRPPRLPRPRPRPYRNPRP,-0.00595
24,RRIRARPPRLPRPRPRPRDEPRP,1.06
25,RRIRYRPPRLPRPRPRPMMPPRP,-0.0554
